What was measured:
[1] = molecular target: hBMP-10 (human) (UniProt O95393); assay: SPR kinetics, captured CHO-cell-derived protein
[2] = molecular target: hBMP-9 (human) (UniProt Q9UK05); assay: SPR kinetics, captured CHO-cell-derived protein
[3] = molecular target: hBMP-10 (human) (UniProt O95393); assay: cell-based or functional assay
[4] = molecular target: hBMP-9 (human) (UniProt Q9UK05); assay: cell-based or functional assay

UniProt O95393, sequence (O95393 317-424 limits assumed): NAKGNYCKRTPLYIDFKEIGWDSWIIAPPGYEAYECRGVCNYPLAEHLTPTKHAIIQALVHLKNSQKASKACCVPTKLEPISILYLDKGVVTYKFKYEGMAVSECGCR
UniProt Q9UK05, sequence (Q9UK05 320-429 limits assumed): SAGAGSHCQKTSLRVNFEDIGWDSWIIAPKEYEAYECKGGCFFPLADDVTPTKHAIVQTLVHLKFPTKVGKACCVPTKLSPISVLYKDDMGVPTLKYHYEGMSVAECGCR

Kd [1]: 490 pM
koff [1]: 0.011 s⁻¹
Kd [2]: 33 pM
koff [2]: 0.0025 s⁻¹
IC50 (nM), BRE-luciferase reporter-gene assay in A204 cells [3]: 7.9 nM
IC50 (nM), BRE-luciferase reporter-gene assay in A204 cells [4]: 0.26 nM
Substance: hENG(26-586)-hFc, CHO-cell-derived, with N-terminally truncated Fc domain (Fc fusion)

From patent US20150307588A1
